9 molecules from patent US20230147657A1 (INSERM INSTITUT NATIONAL DE LA SANT ET DE LA RECHERCHE M …, published 2023) can be followed below.

Read-outs that look alike come from different tables or passages of the source.

Common to all, as to experiment: flow cytometry on T cells of human PBMC; biotin anti-human IgG + streptavidin PerCP-Cy5.5
For experiment [1], the target named is T1, human CD45RC (human, UniProt P08575 26-1306).
T1 construct: Native protein on human blood leukocytes / PBMC / T cells of healthy volunteers; also called hCD45RC
T1 sequence: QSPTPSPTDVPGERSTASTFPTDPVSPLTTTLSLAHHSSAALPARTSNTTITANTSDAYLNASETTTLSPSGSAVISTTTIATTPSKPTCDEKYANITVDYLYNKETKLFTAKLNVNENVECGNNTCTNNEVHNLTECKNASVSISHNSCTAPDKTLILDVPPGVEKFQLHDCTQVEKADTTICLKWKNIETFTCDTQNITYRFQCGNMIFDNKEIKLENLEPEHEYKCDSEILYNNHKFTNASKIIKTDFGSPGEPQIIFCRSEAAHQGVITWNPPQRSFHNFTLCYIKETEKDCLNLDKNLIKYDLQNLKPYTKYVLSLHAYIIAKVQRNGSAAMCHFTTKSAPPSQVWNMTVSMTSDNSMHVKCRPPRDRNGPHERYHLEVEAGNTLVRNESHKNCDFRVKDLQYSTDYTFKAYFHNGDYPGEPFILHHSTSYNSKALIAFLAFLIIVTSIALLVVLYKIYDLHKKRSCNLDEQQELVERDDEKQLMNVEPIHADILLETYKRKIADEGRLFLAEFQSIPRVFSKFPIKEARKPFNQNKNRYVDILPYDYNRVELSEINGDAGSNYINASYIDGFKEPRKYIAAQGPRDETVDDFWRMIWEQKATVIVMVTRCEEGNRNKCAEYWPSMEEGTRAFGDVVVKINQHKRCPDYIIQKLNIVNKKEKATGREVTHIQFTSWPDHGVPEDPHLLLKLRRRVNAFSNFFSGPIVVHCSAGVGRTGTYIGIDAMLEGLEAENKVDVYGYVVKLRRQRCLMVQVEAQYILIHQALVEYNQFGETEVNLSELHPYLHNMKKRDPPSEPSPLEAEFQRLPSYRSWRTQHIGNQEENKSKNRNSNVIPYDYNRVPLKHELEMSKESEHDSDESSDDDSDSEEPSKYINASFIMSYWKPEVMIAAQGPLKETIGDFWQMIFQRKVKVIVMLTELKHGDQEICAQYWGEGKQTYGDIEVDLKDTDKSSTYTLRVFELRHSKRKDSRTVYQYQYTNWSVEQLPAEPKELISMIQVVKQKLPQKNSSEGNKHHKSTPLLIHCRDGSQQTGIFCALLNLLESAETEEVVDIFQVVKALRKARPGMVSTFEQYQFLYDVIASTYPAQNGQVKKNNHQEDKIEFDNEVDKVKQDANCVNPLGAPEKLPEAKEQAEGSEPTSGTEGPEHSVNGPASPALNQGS

The target in experiment [2] is T1, human CD45RC. This is another data set of the same source.
Experiment [3] has as its target T1, human CD45RC. This is another data set of the same source.

B1: Anti-45RC Variant A (antibody, human IgG1, kappa, V domains shown)
VH: QVQLVQSGAEVKKPGASVKVSCKASGYTFTNYYIGWVRQAPGQGLEWIGDIFPGGDYANSNEKFKGRVTLTADTSISTAYMELSRLRSDDTVVYYCVRRNFDYWGQGTLVTVSS
VL: DIQLTQSPSFLSASVGDRVTITCSASSSVSYMHWFQQKPGKAPKLWIYNTSNLPSGVPSRFSGSGSGTEYTLTISSLQPEDFATYYCQQRSSYPLTFGGGTKVEIKR
notes: also called humanized ABIS-45RC variant A
Regarding B1, in the experiment with human CD45RC [1], the “% of T cells in the CD45RC gate at 1 µg/mL” value (from here on “% of T cells … at 1 µg/mL”) worked out at 58.2% and the “% of T cells in the CD45RC gate at 2 µg/mL” value (“% of T cells … at 2 µg/mL” below) came out at 60.2%.

B2: Anti-45RC Variant B (antibody, human IgG1, kappa, V domains shown)
VH: B1 VH
VL: EIVLTQSPDFQSVTPKEKVTITCSASSSVSYMHWFQQKPDQSPKLWIYNTSNLPSGVPSRFSGSGSGTDYTLTINSLEAEDAATYYCQQRSSYPLTFGGGTKVEIKR
notes: also called humanized ABIS-45RC variant B
On to B2, for which, in the experiment with human CD45RC [1], the “% of T cells … at 1 µg/mL” value amounted to 43.9% and the “% of T cells … at 2 µg/mL” value is 32.7%.

B3: Anti-45RC Variant D (antibody, human IgG1, kappa, V domains shown)
VH: EVQLVQSGAEVKKPGESLKISCKASGYTFTNYYIGWVRQMPGKGLEWIGDIFPGGDYANSNEKFKGQVTLSADKSISTAYLQLSSLKASDTAMYYCVRRNFDYWGQGTLVTVSS
VL: B1 VL
notes: also called humanized ABIS-45RC variant D
For the molecule B3, in the experiment with human CD45RC [1], the “% of T cells … at 1 µg/mL” value was determined as 57.2% and the “% of T cells … at 2 µg/mL” value was determined as 59.5%.

B4: Anti-45RC Variant C (antibody, human IgG1, kappa, V domains shown)
VH: B1 VH
VL: EIVLTQSPATLSLSPGERATLSCSASSSVSYMHWFQQKPGQAPRLWIYNTSNLPSGIPARFSGSGSGTDYTLTISSLEPEDFAVYYCQQRSSYPLTFGGGTKVEIKR
notes: also called humanized ABIS-45RC variant C
Consider B4, for which, in the experiment with human CD45RC [1], the “% of T cells … at 1 µg/mL” value was 63.3% and the “% of T cells … at 2 µg/mL” value was 63.7%.

B5: Anti-45RC Variant I (antibody, human IgG1, kappa, V domains shown)
VH: QVQLVESGGGLVKPGGSLRLSCAASGYTFTNYYIGWIRQAPGKGLEWIGDIFPGGDYANSNEKVKGRFTLSADTAKNSAYLQMNSLRAEDTAVYYCVRRNFDYWGQGTLVTVSS
VL: B1 VL
notes: also called humanized ABIS-45RC variant I
In the case of B5, in the experiment with human CD45RC [2], the “% of T cells … at 1 µg/mL” value was 49.7% and the “% of T cells … at 2 µg/mL” value stood at 48.9%.

B6: Anti-45RC Variant E (antibody, human IgG1, kappa, V domains shown)
VH: B3 VH
VL: B2 VL
notes: also called humanized ABIS-45RC variant E
B6: in the experiment with human CD45RC [3], the “% of T cells … at 1 µg/mL” value was determined as 53.7% and the “% of T cells … at 2 µg/mL” value came out at 48.9%.

B7: Anti-45RC Variant G (antibody, human IgG1, kappa, V domains shown)
VH: B5 VH
VL: B2 VL
notes: also called humanized ABIS-45RC variant G
Turning to B7, in the experiment with human CD45RC [3], the “% of T cells … at 1 µg/mL” value was 55.7% and the “% of T cells … at 2 µg/mL” value turned out to be 54.2%.

B8: Anti-45RC Variant F (antibody, human IgG1, kappa, V domains shown)
VH: B3 VH
VL: B4 VL
notes: also called humanized ABIS-45RC variant F
Take B8: in the experiment with human CD45RC [3], the “% of T cells … at 1 µg/mL” value is 58.8% and the “% of T cells … at 2 µg/mL” value was determined as 57.2%.

B9: Anti-45RC Variant H (antibody, human IgG1, kappa, V domains shown)
VH: B5 VH
VL: B4 VL
notes: also called humanized ABIS-45RC variant H
As to B9, in the experiment with human CD45RC [2], the “% of T cells … at 1 µg/mL” value stood at 29.5% and the “% of T cells … at 2 µg/mL” value was 13.2%.
